Measured values published in the supplement of paper PMC10724198.
± gives the standard deviation of the averaged measurements.

System: Saccharomyces cerevisiae
Assay: protein stability index of tFT-peptide fusion (C-terminal peptide) (PSI (0-1 scale)); higher = more stable (slower turnover)
Details: genetic background: wild type; temperature: 30 C
Method: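 Multiplexed protein stability (MPS) profiling in S. cerevisiae. Random 12-aa peptides (tFT-X12 library) are fused to the C-terminus of a sfGFP-mCherry tandem fluorescent timer, after mCherry and a GGGS linker. Cells are FACS-sorted into 8 mCherry/sfGFP bins and deep-sequenced. The protein stability index (PSI) is the read-weighted bin average, scaled from 0 (unstable) to 1 (stable). Only peptides with >10 reads are reported; cells were grown at 30 °C in SC-His with glucose.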
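Further: PSI is a weighted mean of sequencing reads over stability bins, variants kept only with over 10 reads, mCherry proximal and sfGFP distal, peptide attached via GGGS linker.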

Sequence | protein stability index
AVTRLQPVMRAV | 0.6804 ± 0.0054
AVVGCGGGWWWA | 0.715 ± 0.13
AVVVWGGGWWWA | 0.78 ± 0.15
AVWGWAFASVGG | 0.735 ± 0.04
AWESVGVWWGDS | 0.76 ± 0.043
AWGELGSGVFGL | 0.681 ± 0.032
AWGRWGGGSRVE | 0.636 ± 0.02
AWGYFTDTRERY | 0.687 ± 0.036
AWQGRVEGGDGA | 0.665 ± 0.024
AYCRRPALPWRG | 0.714 ± 0.028
AYEGVYAVVANV | 0.616 ± 0.014
AYICLSGLGRCI | 0.672 ± 0.03
AYPWWLILSDAI | 0.759 ± 0.016
AYWWSLGRALGC | 0.745 ± 0.065
CALWHLLPVNLH | 0.645 ± 0.059
CAPPSSPCLCSI | 0.701 ± 0.064
CASLATAPPTSQ | 0.728 ± 0.026
CAWLCVRFAGVG | 0.668 ± 0.062
CCGHGVFSFFSL | 0.749 ± 0.023
CCLASVSADKVV | 0.703 ± 0.025
CCLGCFLKHGIV | 0.652 ± 0.035
CCSIVRSGAGDK | 0.748 ± 0.012
CCSSCFVLSKAA | 0.6463 ± 0.0031
CDCDESYFNPLG | 0.666 ± 0.037
CDLISNFFLIGV | 0.633 ± 0.03

Sequence | protein stability index
CDSVATFCLRLF | 0.6234 ± 0.0031
CEHGGWYVGFCS | 0.7 ± 0.008
CERIGIRHLIKW | 0.657 ± 0.036
CFCSWFWDLVLC | 0.628 ± 0.0076
CFDALLPEELSS | 0.696 ± 0.044
CFLPLFFFRFVE | 0.609 ± 0.027
CFVDHCPIAHIY | 0.608 ± 0.022
CGCCTSSPFVSQ | 0.687 ± 0.061
CGGDGRTPTTHT | 0.665 ± 0.019
CGGGCVVGAGWG | 0.727 ± 0.044
CGLMIFSRSYRF | 0.704 ± 0.033
CGMIQDKCEGEI | 0.738 ± 0.049
CGRITADKRILL | 0.65 ± 0.098
CGRRGYIVRTFL | 0.658 ± 0.071
CGSWVAVESLEL | 0.679 ± 0.042
CGVGEGGLLGWL | 0.745 ± 0.072
CGVGWGMVEGWR | 0.691 ± 0.016
CGWFSVGLMVGG | 0.485 ± 0.057
CHSLEDRPDDPC | 0.758 ± 0.1
CIGVGTVRGSHG | 0.673 ± 0.067
CIKQTNNQNKSN | 0.697 ± 0.045
CILYTGYDLGNV | 0.7 ± 0.021
CIPVTGLHFRVI | 0.6136 ± 0.0035
CITKERVMVKFV | 0.538 ± 0.012
CITRIGSYGEET | 0.679 ± 0.057

Sequence | protein stability index
CLCHAPLPLAAP | 0.642 ± 0.013
CLFLRLSPSCSR | 0.686 ± 0.04
CLGCAFPPHSLY | 0.646 ± 0.046
CLGGPAAWPLFS | 0.6778 ± 0.0025
CLLAPSSLASPI | 0.66 ± 0.043
CLLFSRQLLESP | 0.678 ± 0.077
CLLPFCFLSHIF | 0.585 ± 0.04
CLLRPTPRPATP | 0.779 ± 0.036
CLLYPPYHFYIH | 0.567 ± 0.0066
CLMGTIETRLRC | 0.637 ± 0.049
CLPQCLNPDFAE | 0.645 ± 0.0066
CLRGGGAGDGAS | 0.673 ± 0.048
CLRGTYPRLPLT | 0.6838 ± 0.0035
CLRRRSLSPLFI | 0.7252 ± 0.0057
CLSFCFGISVFD | 0.616 ± 0.017
CLSSVSLSNVSV | 0.669 ± 0.068
CLVKSNVCVAPG | 0.643 ± 0.12
CMRVHPGHPFPY | 0.633 ± 0.06
CNEKVNRNGYKR | 0.69 ± 0.064
CNIASTLEKTCP | 0.7043 ± 0.0062
CNNRNKRMRKYI | 0.669 ± 0.031
CPFLFSLFPHSF | 0.6646 ± 0.0033
CPFTDPRRQQSV | 0.646 ± 0.028
CPLGHLCVIRFG | 0.59 ± 0.012
CPPSPSPPLPPL | 0.712 ± 0.0085

Sequence | protein stability index
CPRLWGGRLLMR | 0.5867 ± 0.003
CPRWHDCLACIE | 0.665 ± 0.011
CPSLSALNHPLV | 0.701 ± 0.021
CPYIFLLSLGNT | 0.651 ± 0.017
CQLCTDPLIDLL | 0.667 ± 0.03
CQNLVCRCCLWI | 0.6423 ± 0.0059
CQRHGTKIHRRR | 0.736 ± 0.053
CQTRTKAKKTQV | 0.727 ± 0.0083
CQVDGTMLCSEC | 0.652 ± 0.02
CQVVALYCFSLL | 0.62 ± 0.068
CRAAAGMVVWHG | 0.6835 ± 0.0056
CRATYVGTGGRG | 0.656 ± 0.016
CRFRFGFNFSSF | 0.581 ± 0.075
CRGVGGRTVING | 0.692 ± 0.032
CRNSTKFAVLRE | 0.654 ± 0.012
CRPVHVNLPFYF | 0.5884 ± 0.00092
CRRCRIHSGIYD | 0.672 ± 0.034
CRRLLIHTALRV | 0.582 ± 0.015
CRRPPWRFSFPF | 0.767 ± 0.021
CRSGSVGGIRGR | 0.679 ± 0.011
CSFHPSSVSLYS | 0.555 ± 0.027
CSFSRRLCHRPT | 0.701 ± 0.013
CSHSLFASCSSL | 0.695 ± 0.021
CSIVGLGACVSW | 0.669 ± 0.0083
CSLCILSWTFPS | 0.6464 ± 0.0026

Sequence | protein stability index
CSLSRFLGCWGF | 0.668 ± 0.062
CSMSGPLIIIAR | 0.58339 ± 0.00021
CSPSDCGWQLVL | 0.604 ± 0.09
CSRFPGSVRVVS | 0.615 ± 0.012
CSRSPASAPRPH | 0.688 ± 0.018
CSSLPPFPALPR | 0.701 ± 0.026
CSSTTFADRRFM | 0.753 ± 0.062
CTAPIASWKRVL | 0.694 ± 0.029
CTCLHSSGVRHT | 0.692 ± 0.047
CTSSVRARRRFR | 0.698 ± 0.043
CVFSCLLATVFL | 0.533 ± 0.026
CVGARLYMVRDR | 0.724 ± 0.046
CVGFCLGKCTMS | 0.732 ± 0.014
CVIESIEQCLSR | 0.716 ± 0.045
CVLAPPHRRAPS | 0.699 ± 0.031
CVLLGSTIPAIV | 0.645 ± 0.043
CWVRGLEYCSIW | 0.676 ± 0.028
CYGAYLVSQWGS | 0.697 ± 0.028
DACWWVDDGGVV | 0.719 ± 0.051
DAGLCGCCGVIG | 0.666 ± 0.057
DALGRSTKGGHW | 0.689 ± 0.024
DARGTVVEIRPG | 0.72 ± 0.19
DAVRRSSLSLAT | 0.711 ± 0.16
DCFSFVASSSFC | 0.7696 ± 0.004
DCIAFVPRDRRS | 0.614 ± 0.012

Sequence | protein stability index
DCREALLAKVYL | 0.627 ± 0.07
DCRLPSLPPCVA | 0.648 ± 0.059
DCYSKLQSRKCG | 0.682 ± 0.018
DDTSIVRRMQSP | 0.674 ± 0.014
DEVRDTSGGTWA | 0.642 ± 0.02
DFMGLRCSARKA | 0.693 ± 0.016
DFPLISAHNTVC | 0.655 ± 0.033
DFVESKVCSCSV | 0.666 ± 0.01
DFVSQFSFQFGC | 0.713 ± 0.066
DGGKRKQDSQKK | 0.683 ± 0.034
DGKGLRATWQWS | 0.737 ± 0.037
DGLGSSGCCLCW | 0.693 ± 0.038
DGPGFNVCLRCK | 0.708 ± 0.017
DGPRPPRPSPVP | 0.699 ± 0.04
DGPWGGVRAGEV | 0.717 ± 0.063
DGRLNVCCYPSC | 0.689 ± 0.15
DGSSESRSGTGK | 0.69 ± 0.057
DGTLTAKVIETF | 0.66 ± 0.058
DGTSKDSKWYMN | 0.747 ± 0.088
DGVGRLADGRGI | 0.688 ± 0.013
DGVGVPGCGRVG | 0.734 ± 0.075
DGVWVRCGTLGF | 0.715 ± 0.078
DHCRTQHLGLEM | 0.725 ± 0.015
DHGVRASSRATG | 0.692 ± 0.015
DHHGGTEPHRVP | 0.7079 ± 0.0052

Sequence | protein stability index
DICCGLCGLLPR | 0.658 ± 0.079
DIGGLGYCDCVK | 0.758 ± 0.054
DIGGTDYDPAIS | 0.7138 ± 0.0017
DIHLSRQKTRIL | 0.752 ± 0.17
DIKKSTKGQNQQ | 0.602 ± 0.025
DILCRILLRPKG | 0.63 ± 0.031
DIRFSAARRPTG | 0.6627 ± 0.0053
DIRKAEISANFC | 0.59434 ± 2.4e-05
DITQSRIHMTNI | 0.661 ± 0.055
DKKEEEKKSTKH | 0.70302 ± 0.00026
DKNDGNHKKKKN | 0.702 ± 0.017
DKPVDTRPGSPG | 0.66 ± 0.031
DKSHRKNKKKRN | 0.699 ± 0.0074
DKYKIDKKSKRK | 0.683 ± 0.059
DLATSVVYIVTV | 0.506 ± 0.0077
DLDVVGEGSAGT | 0.683 ± 0.046
DLFLTSSCPCLC | 0.55106 ± 4.5e-05
DLGLEVVSFLKF | 0.741 ± 0.068
DLPDGRRFIVIG | 0.682 ± 0.08
DLPDLQPACPRF | 0.722 ± 0.019
DLPSSPCSYFRR | 0.616 ± 0.034
DLRVSLLSHLSL | 0.679 ± 0.11
DLSAGKWSRSSD | 0.689 ± 0.023
DLSAGPPFLLIR | 0.6717 ± 0.0038
DLTGKGCIYMER | 0.702 ± 0.034

Sequence | protein stability index
DLVGSWMCGPDL | 0.691 ± 0.028
DLVRGGNCVYGV | 0.66 ± 0.032
DMAVYLVSVSRV | 0.609 ± 0.053
DMCLSVIEQTAC | 0.6123 ± 0.0028
DMSQKSENKKLI | 0.689 ± 0.011
DPLLYLCLGSQC | 0.676 ± 0.017
DPLVDLCGPLSL | 0.717 ± 0.077
DPPDPASIHLSF | 0.752 ± 0.0096
DPRHDNRYPRVR | 0.617 ± 0.16
DPTWIKKRPSIP | 0.666 ± 0.044
DPVVSQLSSVPA | 0.656 ± 0.041
DQAWYFVRLAGD | 0.766 ± 0.2
DQIYEKQKIPST | 0.621 ± 0.0079
DQLGARSGELLR | 0.697 ± 0.063
DREGIELHKNKD | 0.658 ± 0.0072
DREVGQGRLTEE | 0.6359 ± 0.0018
DRGFSVGGGWGW | 0.676 ± 0.066
DRGSLVASGGGG | 0.713 ± 0.015
DRKWSPGSGVVD | 0.696 ± 0.051
DRLGGVSQVNIQ | 0.751 ± 0.042
DRPACVAHKLFS | 0.677 ± 0.0073
